Among the data in publication PMC3857192 are response values, retold here.

The target in this assay is PAC-1. Description: flow cytometry on cells. The following applies: read off a plot. A general note: In flow cytometry, cells or beads pass a laser one at a time.
Setting [1] is: no treatment (CON), parent: est. 0.
The mark [2] stands for this setting: FITC-PAC-1 5 µg/ml, DTT + PT25-2, parent: est. 36.
Where [3] appears, read: FITC-PAC-1 5 µg/ml, DTT, parent: est. 13.
Setting [4] is: FITC-PAC-1 5 µg/ml, mAb PT25-2, parent: est. 26.

Consider “normal integrin αIIbβ3 (from UniProt P08514;P05106) αIIb:F992A; αIIb:F993A”, for which the response was 37 NNFI (DTT + PT25-2, parent: est. 36); 28 NNFI (DTT, parent: est. 12); 34 NNFI (mAb PT25-2, parent: est. 26); 24 NNFI under setting [1].
Taken in the same sequence, the figures for “normal integrin αIIbβ3 (from UniProt P08514;P05106) αIIb:K321C; αIIb:F992A; αIIb:F993A; β3:E358C” were 38 NNFI, 23 NNFI, 5.5 NNFI and 2.7 NNFI.
In the same order, the values of “normal integrin αIIbβ3 (from UniProt P08514;P05106) αIIb:K321C; αIIb:F992A; αIIb:F993A; β3:R360C” are 20 NNFI, 13 NNFI, 9.9 NNFI and 5.5 NNFI.
Take “normal integrin αIIbβ3 (from UniProt P08514;P05106) αIIb:K321C; β3:E358C”: the response under setting [2] stood at 38 NNFI; the response under setting [3] worked out at 19 NNFI; the response under setting [4] turned out to be 6.2 NNFI; the response (FITC-PAC-1 5 µg/ml, no treatment (CON), parent: est. 0) was found to be 0.7 NNFI.
Take “normal integrin αIIbβ3 (from UniProt P08514;P05106) αIIb:K321C; β3:R360C”: the response by setting is: under setting [2], 28 NNFI; under setting [3], 14 NNFI; under setting [4], 9.7 NNFI.
